In paper PMC6126843, “A dual-specific macrophage colony-stimulating factor antagonist of c-FMS and αvβ3 integrin for osteoporosis therapy” (PLoS Biology, 2018):

Assays:
c-FMS (Homo sapiens) = c-FMS (Homo sapiens) (UniProt P07333); details: cited from earlier work
[1] = target: M-CSFRGD variant 5.6, purified soluble protein (human) (UniProt P09603); assay: SPR; ProteOn XPR36; M-CSF variants immobilised by amine coupling; c-FMS or αvβ3 integrin flowed at 0, 12.5, 25, 50, 100 and 200 nM, 50 μl/min, 25 °C, PBS + 0.005% Tween; KD from the equilibrium binding phase; apparent (S9 Fig legend)
[2] = target: M-CSF_(c-FMS), monospecific M-CSF that can bind only c-FMS (human) (UniProt P09603); assay: as above
[3] = target: M-CSFRGD variant 4.24, purified soluble protein (human) (UniProt P09603); assay: as above
[4] = target: M-CSFRGD variant 4.22, purified soluble protein (human) (UniProt P09603); assay: as above
[5] = target: M-CSF_(αvβ3), monospecific M-CSF that can bind αvβ3 integrin (human) (UniProt P09603); assay: as above
[6] = target: αvβ3 integrin (Homo sapiens) (UniProt P06756); details: cited from earlier work
αvβ3 integrin (Homo sapiens), sequence (P06756 31-992, chain 1 of 2): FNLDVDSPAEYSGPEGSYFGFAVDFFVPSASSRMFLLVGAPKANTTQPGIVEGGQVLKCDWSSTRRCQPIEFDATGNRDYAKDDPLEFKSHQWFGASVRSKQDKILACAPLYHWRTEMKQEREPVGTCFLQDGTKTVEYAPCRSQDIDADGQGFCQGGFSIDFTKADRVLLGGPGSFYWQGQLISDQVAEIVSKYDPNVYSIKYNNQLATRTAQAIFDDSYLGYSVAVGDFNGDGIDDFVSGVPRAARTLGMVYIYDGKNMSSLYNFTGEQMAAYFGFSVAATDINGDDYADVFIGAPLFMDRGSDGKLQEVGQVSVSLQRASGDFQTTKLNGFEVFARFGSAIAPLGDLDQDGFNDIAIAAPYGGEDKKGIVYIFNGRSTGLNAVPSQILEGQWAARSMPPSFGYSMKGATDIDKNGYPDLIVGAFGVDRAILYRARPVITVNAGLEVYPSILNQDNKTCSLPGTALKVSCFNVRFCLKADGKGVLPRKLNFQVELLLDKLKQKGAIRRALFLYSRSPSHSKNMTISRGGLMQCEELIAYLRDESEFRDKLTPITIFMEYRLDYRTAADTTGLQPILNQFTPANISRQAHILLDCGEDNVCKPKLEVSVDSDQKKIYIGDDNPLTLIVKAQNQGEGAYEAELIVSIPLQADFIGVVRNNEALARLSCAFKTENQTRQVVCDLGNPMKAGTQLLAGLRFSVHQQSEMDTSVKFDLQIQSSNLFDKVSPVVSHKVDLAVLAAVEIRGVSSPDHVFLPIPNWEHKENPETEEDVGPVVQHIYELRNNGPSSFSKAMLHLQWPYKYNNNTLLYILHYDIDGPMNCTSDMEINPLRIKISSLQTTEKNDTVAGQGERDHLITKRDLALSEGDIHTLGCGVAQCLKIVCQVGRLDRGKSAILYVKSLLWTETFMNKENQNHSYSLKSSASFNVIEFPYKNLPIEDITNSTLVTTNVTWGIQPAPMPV
αvβ3 integrin (Homo sapiens), sequence (P05106 27-718, chain 2 of 2, further chain): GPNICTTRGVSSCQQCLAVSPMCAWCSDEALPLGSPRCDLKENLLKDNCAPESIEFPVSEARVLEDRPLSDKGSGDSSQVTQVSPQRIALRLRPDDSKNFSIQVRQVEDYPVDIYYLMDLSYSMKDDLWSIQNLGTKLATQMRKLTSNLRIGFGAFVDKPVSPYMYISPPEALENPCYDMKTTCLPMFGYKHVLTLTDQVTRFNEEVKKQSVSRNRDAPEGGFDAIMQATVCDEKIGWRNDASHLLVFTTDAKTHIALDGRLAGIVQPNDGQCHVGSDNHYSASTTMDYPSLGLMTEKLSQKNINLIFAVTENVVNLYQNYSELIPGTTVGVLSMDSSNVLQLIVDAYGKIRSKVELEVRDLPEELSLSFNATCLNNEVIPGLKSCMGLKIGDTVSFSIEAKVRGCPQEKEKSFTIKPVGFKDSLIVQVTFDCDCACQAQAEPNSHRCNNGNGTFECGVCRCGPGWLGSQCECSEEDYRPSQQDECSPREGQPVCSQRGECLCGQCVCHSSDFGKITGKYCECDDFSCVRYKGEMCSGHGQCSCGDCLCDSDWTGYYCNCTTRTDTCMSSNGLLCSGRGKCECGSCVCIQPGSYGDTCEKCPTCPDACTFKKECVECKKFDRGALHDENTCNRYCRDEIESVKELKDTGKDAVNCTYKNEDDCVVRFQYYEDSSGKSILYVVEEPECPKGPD

[7] = target: T1, soluble Fc-conjugated human c-FMS (human, UniProt P07333 20-517); assay: flow cytometry on cells; yeast surface display: yeast displaying M-CSF incubated with soluble c-FMS-Fc (0.5–2000 nM for the titration, 100 nM for the libraries, 50 nM for single clones) in PBS + 1% BSA, 1 h at room temperature; detected with goat anti-human Fc FITC; apparent; details: one partner purified
T1 construct: c-FMS (M-CSF receptor, CSF-1R), human, soluble form; Detected with goat anti-human Fc FITC; also called c-FMS-Fc; soluble c-FMS; source: bought: R&D systems
T1 sequence (P07333 20-517): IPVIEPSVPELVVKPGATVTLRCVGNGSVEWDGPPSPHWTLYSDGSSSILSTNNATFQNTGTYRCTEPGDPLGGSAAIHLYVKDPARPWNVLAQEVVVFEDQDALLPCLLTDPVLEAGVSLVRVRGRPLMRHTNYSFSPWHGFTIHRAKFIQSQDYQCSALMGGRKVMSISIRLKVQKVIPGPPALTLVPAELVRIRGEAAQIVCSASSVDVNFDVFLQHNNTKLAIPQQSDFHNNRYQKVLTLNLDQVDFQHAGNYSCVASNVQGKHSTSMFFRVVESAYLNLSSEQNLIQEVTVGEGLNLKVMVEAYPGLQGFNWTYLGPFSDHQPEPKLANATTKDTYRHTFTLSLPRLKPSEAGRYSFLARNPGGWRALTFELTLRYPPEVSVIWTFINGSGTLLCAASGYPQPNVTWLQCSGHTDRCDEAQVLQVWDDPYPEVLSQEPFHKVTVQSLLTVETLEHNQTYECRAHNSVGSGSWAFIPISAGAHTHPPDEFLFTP

c-FMS (Homo sapiens), sequence (P07333 20-517): as above

In the case of M-CSF (from UniProt P09603), the Kd (c-FMS (Homo sapiens)) is listed as 13.6 nM.

Molecule “human c-FMS soluble protein (from UniProt P07333 20-517) (receptor)” has a Kd [1] of 96 nM, a Kd [2] of 195 nM and a Kd [3] of 219 nM. The Kd [4] was 152 nM.

With “soluble human αvβ3 integrin (from UniProt P06756 31-1048; P05106 27-718) (complex)” the Kd [5] was 231 nM, the Kd [1] was 245 nM and the Kd [3] was 108 nM. It also gave a Kd [4] of 199 nM.

For vitronectin (from UniProt P04004), the Kd [6] is listed as 40.7 nM.

B1: M-CSF_(C31S), displayed on the yeast surface (ligand)
chain: EEVSEYCSHMIGSGHLQSLQRLIDSQMETSSQITFEFVDQEQLKDPVCYLKKAFLLVQDIMEDTMRFRDNTPNAIAIVQLQELSLRLKSCFTKDYEEHDKACVRTFYETPLQLLEKVKNVFNETKNLLDKDWNIFSKNCNNSFAECSSQ
modifications: Yeast-displayed Aga fusion with c-myc tag (carrier left out). Mature numbering +32 = precursor. Limits follow the M-CSF part of PDB 4WRL entity 2 (mature 1-149); the paper's own limits are not …
Molecule B1 has a Kd [7] of 20 nM.
